Results reported in paper PMC12136220.
Several values for one entry are separate records, joined by “and”; a condition that tells them apart may be missing. Equal entries are not always repeated.

What was measured:
[1] = molecular target: human recombinant Hsp60 (human) (UniProt P10809)
[2] = molecular target: human recombinant Hsp60 (human) (UniProt P10809); remark: listed apart in the source
[3] = molecular target: Listeria adhesion protein (LAP) (Listeria monocytogenes); experiment: cryo-EM structure; LAP alone, 1.2 mg/ml, Titan Krios 300 kV with K3 detector, cryoSPARC
[4] = molecular target: Listeria adhesion protein (LAP) (Listeria monocytogenes); experiment: cryo-EM structure; purified LAP mixed with Hsp60 at 2:1, incubated 4 h at 4°C; Titan Krios 300 kV with K3 detector, cryoSPARC; LAP-Hsp60 map refined in C1, Hsp60 alone in C7, LAP dimer in C2

Sequence of human recombinant Hsp60 (human) (P10809 27-573): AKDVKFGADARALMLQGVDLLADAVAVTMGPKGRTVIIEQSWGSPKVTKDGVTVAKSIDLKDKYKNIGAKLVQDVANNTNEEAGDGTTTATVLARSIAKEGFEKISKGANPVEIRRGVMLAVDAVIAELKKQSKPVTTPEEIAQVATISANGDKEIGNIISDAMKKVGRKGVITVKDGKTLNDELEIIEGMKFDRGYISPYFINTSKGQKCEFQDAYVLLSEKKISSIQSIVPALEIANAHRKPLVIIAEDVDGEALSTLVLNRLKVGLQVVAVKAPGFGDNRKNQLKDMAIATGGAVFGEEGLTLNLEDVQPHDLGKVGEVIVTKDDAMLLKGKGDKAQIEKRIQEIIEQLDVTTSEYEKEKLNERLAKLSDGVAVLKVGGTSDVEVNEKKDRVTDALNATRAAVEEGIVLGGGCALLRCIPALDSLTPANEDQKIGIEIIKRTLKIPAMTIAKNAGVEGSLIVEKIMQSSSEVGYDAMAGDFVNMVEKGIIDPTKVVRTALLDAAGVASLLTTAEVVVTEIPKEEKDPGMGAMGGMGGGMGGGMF

Substance	FD4 paracellular flux through Caco-2 monolayers in 1 h, relative to PBS control [1]	decrease of TEER of Caco-2 monolayers in 1 h, relative to full-length LAP (100%) [1]	FD4 (FITC 4-kDa dextran) permeability through Caco-2 monolayers after 1 h, LAP 0.01-5 μg/mL [2]	stoichiometry N [3]	stoichiometry N [4]
N1 subdomain of LAP (domain or fragment)	133%	78%			
Listeria adhesion protein (LAP) (natural protein)	264%		80%	2 and 4	4 and 2
N2 subdomain of LAP (domain or fragment)	149%	96%			
